Measured values taken from paper doi:10.1101/2022.04.08.487687, “In Silico Improvement of Highly Protective Anti-Malarial Antibodies” (bioRxiv, 2022).
No end group written: not given here.

Target: T1, peptide 21 (PfCSP residues 101-115), biotinylated (Plasmodium falciparum 3D7, UniProt Q7K740, also: biotin, position not given here)
T1 construct: Biotinylated probe used in AlphaLISA and BLI; also called Pep21; P21
T1 chain: NPDPNANPNVDPNAN
Assay: BLI; Octet Red384; biotinylated Pep21 immobilised on streptavidin biosensors; Fab serially diluted from 1000 to 62.5 nM; 30°C; PBS + 1% BSA; global fit, 1:1 Langmuir model
Conditions: both partners purified

B1: P3-43 Fab (m43.151 variant P100KH) (Fab, V domains shown)
VH: QVHLVQSGAEVKKPGASVKVSCKASGYTFTSYAIHWVRQAPGQRLEWMGWIKGGNGNTRYSQKFQDRVTITRDTSASTAYMELSSLRSEDTAVYYCALLTVITKDDAFDIWGQGTMVTVSS
VL: not shown
notes: as the heavy chain of m5 (m43.151) with the stated change; as the light chain of m5 (m43.151), no change stated; Best m43.151-based variant; source: Fab produced from the antibody
- Kd: 8.9 ± 0.5 nM
